The target of one assay is YFP-ICAC84-224 (rat). The assay is described as follows: FRET or BRET; living HEK293T cells co-expressing CFP- and YFP-tagged proteins; three-filter imaging; normalized FRET signal N_FRET (Eq. 1); when FRET occurs N_FRET is greater than 0.2. A general note: In BRET a luciferase serves as donor, and the signal depends on an acceptor being close.
In a further assay the target is GFP-ICAC84-224 (rat). Description: co-IP; 293T cells co-transfected with myc-PICK1 and GFP, GFP-ICA69 or a GFP-tagged truncation; RIPA lysate; precipitated with anti-GFP antibody on protein A-sepharose; blot with anti-myc; quantified as Co-IP myc/Input myc, normalized to the ICA69 group; 4 independent cultures.
A further assay deals with GFP-ICAC1-83 (rat). Described as above.

GFP-ICAC84-224 (rat), sequence (Q63054 whole entry, the tested form may be a part): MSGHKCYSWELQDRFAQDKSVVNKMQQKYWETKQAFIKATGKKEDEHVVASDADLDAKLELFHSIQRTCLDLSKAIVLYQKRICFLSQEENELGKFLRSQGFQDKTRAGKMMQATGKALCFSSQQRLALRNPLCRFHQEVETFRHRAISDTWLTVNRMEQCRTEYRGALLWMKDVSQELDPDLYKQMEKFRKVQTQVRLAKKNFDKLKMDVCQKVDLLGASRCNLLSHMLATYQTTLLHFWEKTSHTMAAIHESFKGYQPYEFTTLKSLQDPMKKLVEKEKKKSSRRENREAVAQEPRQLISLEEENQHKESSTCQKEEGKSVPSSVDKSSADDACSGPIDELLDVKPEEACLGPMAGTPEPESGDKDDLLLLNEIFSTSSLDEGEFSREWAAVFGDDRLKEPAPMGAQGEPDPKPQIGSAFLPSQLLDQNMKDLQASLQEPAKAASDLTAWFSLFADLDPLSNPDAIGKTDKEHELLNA
YFP-ICAC84-224 (rat), sequence (Q63054 whole entry, the tested form may be a part): as above

For the substance “CFP-PICK1 (from UniProt Q9EP80 1-416) (natural protein)”, in the assay with YFP-ICAC84-224 (rat), the N FRET was 0.86.
Consider “myc-PICK1 (protein interacting with C-kinase 1) (from UniProt Q9EP80 1-416) (natural protein)”, for which the percentage of precipitated protein normalized to ICA69 group turned out to be 66% in the assay with GFP-ICAC84-224 (rat) and 11% with GFP-ICAC1-83 (rat).

The record behind these values is PMC3865253.
